Here are results for four molecules from patent US12679878B2, “CRF2 receptor agonists and their use in therapy” (SANOFI, priority 2020, dated 2026).

Starred links: 1 amine or outer side, 2 acyl side, 3 side chain; linkers in the order of their positions; H or OH if unused. Non-standard residues stand in square brackets, D forms with d. Groups on a side chain read outwards from the residue. No end group written: not given here. *: point of attachment. C20 diacid = O=C(O)CCCCCCCCCCCCCCCCCCC(=O)*; C18 diacid = O=C(O)CCCCCCCCCCCCCCCCC(=O)*; γGlu = O=C(O)[C@H](CCC(=O)[*:2])N[*:1]; AEEA = NCCOCCOCC(=O)O; Aib = CC(C)(N)C(=O)O

The target in the experiment is human corticotropin-releasing factor 2α (CRF2 α receptor) (human), Q13324. Description: cell-based or functional assay.
human corticotropin-releasing factor 2α (CRF2 α receptor) (human), Q13324, sequence (Q13324 20-411): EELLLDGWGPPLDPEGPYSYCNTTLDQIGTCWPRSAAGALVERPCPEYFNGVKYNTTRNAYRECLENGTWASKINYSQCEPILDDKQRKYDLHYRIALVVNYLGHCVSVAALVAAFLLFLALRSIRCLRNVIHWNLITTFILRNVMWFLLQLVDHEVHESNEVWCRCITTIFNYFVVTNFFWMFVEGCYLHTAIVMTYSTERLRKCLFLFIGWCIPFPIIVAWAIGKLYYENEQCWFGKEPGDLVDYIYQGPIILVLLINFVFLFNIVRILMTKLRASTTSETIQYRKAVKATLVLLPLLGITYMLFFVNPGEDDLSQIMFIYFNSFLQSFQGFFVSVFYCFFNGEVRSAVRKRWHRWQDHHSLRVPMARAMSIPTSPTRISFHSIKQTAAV

B1: SEQ ID NO: 175 (peptide)
peptide: IVLSLD[dV]PIKLK([AEEA-AEEA-γGlu-C20 diacid])QILLKQARQK[Aib]QRAQAEKNKRILERV-NH2
modifications: N-terminus assumed
SMILES: CC[C@H](C)[C@H](N)C(=O)N[C@H](C(=O)N[C@@H](CC(C)C)C(=O)N[C@@H](CO)C(=O)N[C@@H](CC(C)C)C(=O)N[C@@H](CC(=O)O)C(=O)N[C@@H](C(=O)N1CCC[C@H]1C(=O)N[C@H](C(=O)N[C@@H](CCCCN)C(=O)N[C@@H](CC(C)C)C(=O)N[C@@H](CCCCNC(=O)COCCOCCNC(=O)COCCOCCNC(=O)CC[C@H](NC(=O)CCCCCCCCCCCCCCCCCCC(=O)O)C(=O)O)C(=O)N[C@@H](CCC(N)=O)C(=O)N[C@H](C(=O)N[C@@H](CC(C)C)C(=O)N[C@@H](CC(C)C)C(=O)N[C@@H](CCCCN)C(=O)N[C@@H](CCC(N)=O)C(=O)N[C@@H](C)C(=O)N[C@@H](CCCNC(=N)N)C(=O)N[C@@H](CCC(N)=O)C(=O)N[C@@H](CCCCN)C(=O)NC(C)(C)C(=O)N[C@@H](CCC(N)=O)C(=O)N[C@@H](CCCNC(=N)N)C(=O)N[C@@H](C)C(=O)N[C@@H](CCC(N)=O)C(=O)N[C@@H](C)C(=O)N[C@@H](CCC(=O)O)C(=O)N[C@@H](CCCCN)C(=O)N[C@@H](CC(N)=O)C(=O)N[C@@H](CCCCN)C(=O)N[C@@H](CCCNC(=N)N)C(=O)N[C@H](C(=O)N[C@@H](CC(C)C)C(=O)N[C@@H](CCC(=O)O)C(=O)N[C@@H](CCCNC(=N)N)C(=O)N[C@H](C(N)=O)C(C)C)[C@@H](C)CC)[C@@H](C)CC)[C@@H](C)CC)C(C)C)C(C)C
B1 registered an EC50 [nM], 0% HSA of 0.06 nM and an EC50 [nM], 0.1% HSA of 3.64 nM.

B2: SEQ ID NO: 176 (peptide)
peptide: IVLSLD[dV]PIKLK([AEEA-AEEA-γGlu-γGlu-C18 diacid])QILLKQERQKKQRQQAEKNKQILAQV-NH2
modifications: N-terminus assumed
SMILES: CC[C@H](C)[C@H](N)C(=O)N[C@H](C(=O)N[C@@H](CC(C)C)C(=O)N[C@@H](CO)C(=O)N[C@@H](CC(C)C)C(=O)N[C@@H](CC(=O)O)C(=O)N[C@@H](C(=O)N1CCC[C@H]1C(=O)N[C@H](C(=O)N[C@@H](CCCCN)C(=O)N[C@@H](CC(C)C)C(=O)N[C@@H](CCCCNC(=O)COCCOCCNC(=O)COCCOCCNC(=O)CC[C@H](NC(=O)CC[C@H](NC(=O)CCCCCCCCCCCCCCCCC(=O)O)C(=O)O)C(=O)O)C(=O)N[C@@H](CCC(N)=O)C(=O)N[C@H](C(=O)N[C@@H](CC(C)C)C(=O)N[C@@H](CC(C)C)C(=O)N[C@@H](CCCCN)C(=O)N[C@@H](CCC(N)=O)C(=O)N[C@@H](CCC(=O)O)C(=O)N[C@@H](CCCNC(=N)N)C(=O)N[C@@H](CCC(N)=O)C(=O)N[C@@H](CCCCN)C(=O)N[C@@H](CCCCN)C(=O)N[C@@H](CCC(N)=O)C(=O)N[C@@H](CCCNC(=N)N)C(=O)N[C@@H](CCC(N)=O)C(=O)N[C@@H](CCC(N)=O)C(=O)N[C@@H](C)C(=O)N[C@@H](CCC(=O)O)C(=O)N[C@@H](CCCCN)C(=O)N[C@@H](CC(N)=O)C(=O)N[C@@H](CCCCN)C(=O)N[C@@H](CCC(N)=O)C(=O)N[C@H](C(=O)N[C@@H](CC(C)C)C(=O)N[C@@H](C)C(=O)N[C@@H](CCC(N)=O)C(=O)N[C@H](C(N)=O)C(C)C)[C@@H](C)CC)[C@@H](C)CC)[C@@H](C)CC)C(C)C)C(C)C
For the molecule B2, the EC50 [nM], 0% HSA is 0.11 nM and the EC50 [nM], 0.1% HSA is 3.05 nM.

B3: SEQ ID NO: 174 (peptide)
peptide: IVLSLD[dV]PIKLK([AEEA-AEEA-γGlu-γGlu-C18 diacid])QILLKQARQK[Aib]QRAQAEKNKRILERV-NH2
modifications: N-terminus assumed
SMILES: CC[C@H](C)[C@H](N)C(=O)N[C@H](C(=O)N[C@@H](CC(C)C)C(=O)N[C@@H](CO)C(=O)N[C@@H](CC(C)C)C(=O)N[C@@H](CC(=O)O)C(=O)N[C@@H](C(=O)N1CCC[C@H]1C(=O)N[C@H](C(=O)N[C@@H](CCCCN)C(=O)N[C@@H](CC(C)C)C(=O)N[C@@H](CCCCNC(=O)COCCOCCNC(=O)COCCOCCNC(=O)CC[C@H](NC(=O)CC[C@H](NC(=O)CCCCCCCCCCCCCCCCC(=O)O)C(=O)O)C(=O)O)C(=O)N[C@@H](CCC(N)=O)C(=O)N[C@H](C(=O)N[C@@H](CC(C)C)C(=O)N[C@@H](CC(C)C)C(=O)N[C@@H](CCCCN)C(=O)N[C@@H](CCC(N)=O)C(=O)N[C@@H](C)C(=O)N[C@@H](CCCNC(=N)N)C(=O)N[C@@H](CCC(N)=O)C(=O)N[C@@H](CCCCN)C(=O)NC(C)(C)C(=O)N[C@@H](CCC(N)=O)C(=O)N[C@@H](CCCNC(=N)N)C(=O)N[C@@H](C)C(=O)N[C@@H](CCC(N)=O)C(=O)N[C@@H](C)C(=O)N[C@@H](CCC(=O)O)C(=O)N[C@@H](CCCCN)C(=O)N[C@@H](CC(N)=O)C(=O)N[C@@H](CCCCN)C(=O)N[C@@H](CCCNC(=N)N)C(=O)N[C@H](C(=O)N[C@@H](CC(C)C)C(=O)N[C@@H](CCC(=O)O)C(=O)N[C@@H](CCCNC(=N)N)C(=O)N[C@H](C(N)=O)C(C)C)[C@@H](C)CC)[C@@H](C)CC)[C@@H](C)CC)C(C)C)C(C)C
Molecule B3 gave an EC50 [nM], 0% HSA of 0.07 nM and an EC50 [nM], 0.1% HSA of 0.88 nM.

B4: SEQ ID NO: 173 (peptide)
peptide: IVLSLD[dV]PIKLK([AEEA-AEEA-γGlu-C20 diacid])QILLKQERQK[Aib]QREQAEKNKQILAQV-NH2
modifications: N-terminus assumed
SMILES: CC[C@H](C)[C@H](N)C(=O)N[C@H](C(=O)N[C@@H](CC(C)C)C(=O)N[C@@H](CO)C(=O)N[C@@H](CC(C)C)C(=O)N[C@@H](CC(=O)O)C(=O)N[C@@H](C(=O)N1CCC[C@H]1C(=O)N[C@H](C(=O)N[C@@H](CCCCN)C(=O)N[C@@H](CC(C)C)C(=O)N[C@@H](CCCCNC(=O)COCCOCCNC(=O)COCCOCCNC(=O)CC[C@H](NC(=O)CCCCCCCCCCCCCCCCCCC(=O)O)C(=O)O)C(=O)N[C@@H](CCC(N)=O)C(=O)N[C@H](C(=O)N[C@@H](CC(C)C)C(=O)N[C@@H](CC(C)C)C(=O)N[C@@H](CCCCN)C(=O)N[C@@H](CCC(N)=O)C(=O)N[C@@H](CCC(=O)O)C(=O)N[C@@H](CCCNC(=N)N)C(=O)N[C@@H](CCC(N)=O)C(=O)N[C@@H](CCCCN)C(=O)NC(C)(C)C(=O)N[C@@H](CCC(N)=O)C(=O)N[C@@H](CCCNC(=N)N)C(=O)N[C@@H](CCC(=O)O)C(=O)N[C@@H](CCC(N)=O)C(=O)N[C@@H](C)C(=O)N[C@@H](CCC(=O)O)C(=O)N[C@@H](CCCCN)C(=O)N[C@@H](CC(N)=O)C(=O)N[C@@H](CCCCN)C(=O)N[C@@H](CCC(N)=O)C(=O)N[C@H](C(=O)N[C@@H](CC(C)C)C(=O)N[C@@H](C)C(=O)N[C@@H](CCC(N)=O)C(=O)N[C@H](C(N)=O)C(C)C)[C@@H](C)CC)[C@@H](C)CC)[C@@H](C)CC)C(C)C)C(C)C
In turn, B4 gave an EC50 [nM], 0% HSA of 0.03 nM and an EC50 [nM], 0.1% HSA of 3.49 nM.
